Usually Kd stands for the free concentration of one partner at which half of the binding sites on the other are occupied at equilibrium, for simple one-to-one binding. One may read the koff as a measure of how fast the partners let go of each other. Broadly, the kon is the second-order rate constant of association.

Changes are numbered by the printed parent chain.

The labels stand for the following.
B1: anti-HER3/MET bispecific antibody 1C5-8E2 (bispecific antibody, V domains shown)
VH 1: QVQLVESGGGVVQPGKSLRLSCAASGFTFSRSGMHWVRQAPGKGLEWVALISFDGSNKYYADSVKGRFTISRDNSKNTLNLQMNSLRAEDTAVYYCAKGGFGVVIYDAFDIWGHGTMVTVSS
VH 2: QVQLVQSGPALVKPTQTLTLTCTFSGFSLYTSGVAVAWIRQPPGKALEWLALIYWDDDKWYTPSLKTRLSITKDTSKNQVVLTMTNMDPVDTATYYCAHRGSFNWNYGYFDYWGQGTLVTVSS
VL: not shown
B2: anti-HER3/MET bispecific antibody 3G6-2F11 (bispecific antibody, V domains shown)
VH 1: QVQLVQSGPVLVKPTETLTLTCTVSGFSLSNIRMGVSWIRQPPGKALEWLAHIFSNDDKSYSTSLKSRLTISKDTSKSQVVLTMTNVDPVDTATYYCTRMRYSGGPFDYWGQGTLVTVSS
VH 2: EVQLVESGPGLVKPSETLSLTCTVSGGSISSNYWSWIRQPPGKGLEWIGYIYHSGSTNYNPSLKSRVTISVDTSKNQFSLKLSSVTAADTAVYFCARGPVSIFGVVKYIDLWGRGTLVTVSS
VL: not shown
B3: anti-HER3/MET bispecific antibody 3E1-8D9 (bispecific antibody, V domains shown)
VH 1: B2 VH 1 with Q1E, V12A, T63P, S67N, N86T, V87M, V90M, R101K
VH 2: QVQLQESGPGLVKPSETLSLTCTVSGGSISGHYWSWIRQSPGKGLEWIGYITYSGSTNYNPSLKSRVTISVDTSKNQFSLKLSSVTAADTAVYYCGTIAVAGRVYYYGVDVWGRGTTVTVSS
VL: not shown
B4: anti-HER3/MET bispecific antibody 3G6-8E2 (bispecific antibody, V domains shown)
VH 1: B2 VH 1
VH 2: B1 VH 2
VL: not shown
B5: anti-HER3/MET bispecific antibody 1B2-2F11 (bispecific antibody, V domains shown)
VH 1: B2 VH 1 with G26T, I32A, T63P, S78T, V87M, T98S, T114S
VH 2: B2 VH 2
VL: not shown
B6: anti-HER3/MET bispecific antibody 1B2-8E2 (bispecific antibody, V domains shown)
VH 1: B2 VH 1 with G26T, I32A, T63P, S78T, V87M, T98S, T114S
VH 2: B1 VH 2
VL: not shown
B7: anti-HER3/MET bispecific antibody 3E1-2F11 (bispecific antibody, V domains shown)
VH 1: B2 VH 1 with Q1E, V12A, T63P, S67N, N86T, V87M, V90M, R101K
VH 2: B2 VH 2
VL: not shown
B8: anti-HER3/MET bispecific antibody 3E1-8E2 (bispecific antibody, V domains shown)
VH 1: B2 VH 1 with Q1E, V12A, T63P, S67N, N86T, V87M, V90M, R101K
VH 2: B1 VH 2
VL: not shown
B9: anti-HER3/MET bispecific antibody 1B2-8D9 (bispecific antibody, V domains shown)
VH 1: B2 VH 1 with G26T, I32A, T63P, S78T, V87M, T98S, T114S
VH 2: B3 VH 2
VL: not shown

T7 sequence (P08581 25-932 limits assumed): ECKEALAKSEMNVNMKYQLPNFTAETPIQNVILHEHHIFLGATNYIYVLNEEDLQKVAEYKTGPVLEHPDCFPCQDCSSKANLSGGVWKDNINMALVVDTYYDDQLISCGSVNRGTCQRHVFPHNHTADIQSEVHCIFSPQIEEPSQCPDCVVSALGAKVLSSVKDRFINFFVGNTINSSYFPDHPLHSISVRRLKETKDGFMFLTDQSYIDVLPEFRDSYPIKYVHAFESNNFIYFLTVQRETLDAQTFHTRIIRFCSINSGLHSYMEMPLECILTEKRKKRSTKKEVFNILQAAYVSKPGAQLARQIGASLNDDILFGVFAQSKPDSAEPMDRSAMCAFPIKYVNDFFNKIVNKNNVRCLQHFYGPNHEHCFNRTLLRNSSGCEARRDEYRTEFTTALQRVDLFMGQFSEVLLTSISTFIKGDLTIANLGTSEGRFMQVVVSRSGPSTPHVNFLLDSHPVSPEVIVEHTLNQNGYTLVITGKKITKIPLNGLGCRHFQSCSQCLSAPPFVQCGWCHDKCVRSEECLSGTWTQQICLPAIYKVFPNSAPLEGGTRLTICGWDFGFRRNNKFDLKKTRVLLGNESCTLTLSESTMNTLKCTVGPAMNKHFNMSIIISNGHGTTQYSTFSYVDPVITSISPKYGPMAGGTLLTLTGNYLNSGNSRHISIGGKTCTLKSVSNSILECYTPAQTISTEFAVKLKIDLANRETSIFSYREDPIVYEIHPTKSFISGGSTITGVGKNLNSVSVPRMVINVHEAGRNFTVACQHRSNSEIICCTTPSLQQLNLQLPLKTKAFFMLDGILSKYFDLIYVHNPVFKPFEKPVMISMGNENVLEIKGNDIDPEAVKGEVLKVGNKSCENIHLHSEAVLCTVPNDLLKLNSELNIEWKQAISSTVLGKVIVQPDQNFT
T3 sequence (P08581 25-1390 limits assumed): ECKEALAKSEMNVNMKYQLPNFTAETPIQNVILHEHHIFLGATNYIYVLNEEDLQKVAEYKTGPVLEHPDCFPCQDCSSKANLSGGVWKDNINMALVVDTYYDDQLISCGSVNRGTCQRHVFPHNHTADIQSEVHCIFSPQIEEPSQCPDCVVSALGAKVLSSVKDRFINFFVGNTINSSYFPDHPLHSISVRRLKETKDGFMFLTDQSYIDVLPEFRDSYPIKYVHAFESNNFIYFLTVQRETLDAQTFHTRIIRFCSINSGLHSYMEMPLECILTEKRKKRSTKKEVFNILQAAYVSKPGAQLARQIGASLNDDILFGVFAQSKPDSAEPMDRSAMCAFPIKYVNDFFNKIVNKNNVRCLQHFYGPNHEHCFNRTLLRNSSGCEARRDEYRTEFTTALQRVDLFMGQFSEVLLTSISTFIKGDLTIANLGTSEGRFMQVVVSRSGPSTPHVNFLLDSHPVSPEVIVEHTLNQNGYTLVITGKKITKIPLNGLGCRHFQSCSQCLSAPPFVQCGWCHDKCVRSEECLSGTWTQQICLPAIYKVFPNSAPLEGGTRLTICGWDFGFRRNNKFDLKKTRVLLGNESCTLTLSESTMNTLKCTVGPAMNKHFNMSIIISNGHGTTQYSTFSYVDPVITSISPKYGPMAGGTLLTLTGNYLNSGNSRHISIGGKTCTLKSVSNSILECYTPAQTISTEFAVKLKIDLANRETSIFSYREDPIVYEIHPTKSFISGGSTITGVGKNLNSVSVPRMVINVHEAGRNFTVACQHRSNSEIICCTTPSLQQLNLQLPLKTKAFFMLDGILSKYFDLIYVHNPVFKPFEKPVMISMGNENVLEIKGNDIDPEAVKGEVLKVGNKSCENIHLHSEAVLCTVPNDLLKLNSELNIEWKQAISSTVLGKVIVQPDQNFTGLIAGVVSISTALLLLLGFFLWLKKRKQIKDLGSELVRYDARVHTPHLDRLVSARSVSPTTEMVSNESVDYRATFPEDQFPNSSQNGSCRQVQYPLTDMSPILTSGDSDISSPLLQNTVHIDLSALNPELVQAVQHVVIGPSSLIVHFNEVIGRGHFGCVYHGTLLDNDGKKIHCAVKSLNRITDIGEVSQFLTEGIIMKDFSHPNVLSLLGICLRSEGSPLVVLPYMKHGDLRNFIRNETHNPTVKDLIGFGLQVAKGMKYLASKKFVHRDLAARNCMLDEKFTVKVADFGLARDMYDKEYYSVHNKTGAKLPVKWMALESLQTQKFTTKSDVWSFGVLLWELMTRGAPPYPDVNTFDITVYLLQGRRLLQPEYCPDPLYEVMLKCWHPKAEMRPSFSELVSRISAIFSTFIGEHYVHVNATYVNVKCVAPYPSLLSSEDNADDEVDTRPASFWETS

One test deals with T1, human HER3 on CHO-hHER3 cells (human, UniProt P21860 20-643).
T1 construct: CHO-S cells transfected with hHER3
In words: flow cytometry, transfected CHO cells. Here is the method: (§1) Specifically, CHO-hHER3 cells, CHO-fasHER3 cells, NIH3T3-hMET cells or NIH3T3-fasMET cells were transferred to a 96-well plate at a density of 5×10⁴ cells/well respectively. The antibodies were added to the 96-well plate, and incubated at 4° C. for 30 min.
In general terms: A flow cytometer gives signals particle by particle.
Turning to B1, the “Positive Cells” value worked out at 56.9%.
Same read-out and setting: in the case of B2 it was 47.3%; in that of B3, 59%.
As to B4, the “Positive Cells” value came to 55.2%.
The same measure, in the same setting: under B5 stands 51.4%; under B6, 56.3%; under B7, 56.4%.
On the same count and under the same terms, under B8 stands 58.4%; under B9, 54%.

In the next test the target is T2, monkey (Macaca fascicularis) HER3 on CHO-fasHER3 cells (monkey (Macaca fascicularis), UniProt P21860 20-643 (human entry)).
T2 construct: CHO-S cells transfected with fasHER3
T2 chain: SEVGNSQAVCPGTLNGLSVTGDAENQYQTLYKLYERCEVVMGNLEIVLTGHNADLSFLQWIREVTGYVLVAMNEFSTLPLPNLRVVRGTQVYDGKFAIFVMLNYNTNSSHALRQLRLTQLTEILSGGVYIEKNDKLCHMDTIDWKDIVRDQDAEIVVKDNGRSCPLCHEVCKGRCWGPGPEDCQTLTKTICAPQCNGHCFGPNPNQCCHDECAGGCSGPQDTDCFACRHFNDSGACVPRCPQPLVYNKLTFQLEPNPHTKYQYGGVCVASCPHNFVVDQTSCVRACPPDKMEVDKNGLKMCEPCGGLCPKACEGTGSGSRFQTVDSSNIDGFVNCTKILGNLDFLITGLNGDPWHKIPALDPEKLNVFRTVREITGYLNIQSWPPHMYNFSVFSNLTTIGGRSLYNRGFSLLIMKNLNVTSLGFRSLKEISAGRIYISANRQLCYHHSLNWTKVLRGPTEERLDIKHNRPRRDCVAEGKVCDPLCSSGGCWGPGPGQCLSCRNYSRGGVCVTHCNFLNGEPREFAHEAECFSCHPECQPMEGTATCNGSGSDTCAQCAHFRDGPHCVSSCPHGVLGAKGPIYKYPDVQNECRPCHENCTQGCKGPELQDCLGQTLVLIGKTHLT
In words: flow cytometry, transfected CHO cells. How it is done: as §1
With B1, the “Positive Cells” value was 55.1%.
On the same count and under the same terms, in the case of B2 it was 56%.
For B3, the “Positive Cells” value was found to be 58.6%.
Same read-out and setting: under B4 stands 58.4%; under B5, 56.3%.
On the same count and under the same terms, in the case of B6 it was 61.4%; in that of B7, 50.3%; in that of B8, 63.9%.
Same read-out and setting: in the case of B9 it was 55.5%.

Another test concerns the target T3, human MET on NIH3T3-hMET cells (human, UniProt P08581 25-1390).
T3 construct: NIH3T3 cells transfected with a plasmid expressing hMET
Put plainly: flow cytometry, transfected NIH3T3 cells. Here is the method: as §1
On to B1, for which the “Positive Cells” value came to 99.6%.
Take B2: the “Positive Cells” value was determined as 99.8%.
The same measure, in the same setting: under B3 stands 99.9%.
For the molecule B4, the “Positive Cells” value turned out to be 99.6%.
Still for that read-out and setting: in the case of B5 it was 99.8%; in that of B6, 99.6%; in that of B7, 99.8%.
For B8, the “Positive Cells” value is 99.5%.
Turning to B9, the “Positive Cells” value is 99.8%.

Another test deals with T4, monkey MET on NIH3T3-fasMET cells (monkey, UniProt A0M8R7 25-1381).
T4 construct: NIH3T3 cells transfected with a plasmid expressing fasMET
T4 sequence (A0M8R7 25-1381 S170N/I621T limits assumed): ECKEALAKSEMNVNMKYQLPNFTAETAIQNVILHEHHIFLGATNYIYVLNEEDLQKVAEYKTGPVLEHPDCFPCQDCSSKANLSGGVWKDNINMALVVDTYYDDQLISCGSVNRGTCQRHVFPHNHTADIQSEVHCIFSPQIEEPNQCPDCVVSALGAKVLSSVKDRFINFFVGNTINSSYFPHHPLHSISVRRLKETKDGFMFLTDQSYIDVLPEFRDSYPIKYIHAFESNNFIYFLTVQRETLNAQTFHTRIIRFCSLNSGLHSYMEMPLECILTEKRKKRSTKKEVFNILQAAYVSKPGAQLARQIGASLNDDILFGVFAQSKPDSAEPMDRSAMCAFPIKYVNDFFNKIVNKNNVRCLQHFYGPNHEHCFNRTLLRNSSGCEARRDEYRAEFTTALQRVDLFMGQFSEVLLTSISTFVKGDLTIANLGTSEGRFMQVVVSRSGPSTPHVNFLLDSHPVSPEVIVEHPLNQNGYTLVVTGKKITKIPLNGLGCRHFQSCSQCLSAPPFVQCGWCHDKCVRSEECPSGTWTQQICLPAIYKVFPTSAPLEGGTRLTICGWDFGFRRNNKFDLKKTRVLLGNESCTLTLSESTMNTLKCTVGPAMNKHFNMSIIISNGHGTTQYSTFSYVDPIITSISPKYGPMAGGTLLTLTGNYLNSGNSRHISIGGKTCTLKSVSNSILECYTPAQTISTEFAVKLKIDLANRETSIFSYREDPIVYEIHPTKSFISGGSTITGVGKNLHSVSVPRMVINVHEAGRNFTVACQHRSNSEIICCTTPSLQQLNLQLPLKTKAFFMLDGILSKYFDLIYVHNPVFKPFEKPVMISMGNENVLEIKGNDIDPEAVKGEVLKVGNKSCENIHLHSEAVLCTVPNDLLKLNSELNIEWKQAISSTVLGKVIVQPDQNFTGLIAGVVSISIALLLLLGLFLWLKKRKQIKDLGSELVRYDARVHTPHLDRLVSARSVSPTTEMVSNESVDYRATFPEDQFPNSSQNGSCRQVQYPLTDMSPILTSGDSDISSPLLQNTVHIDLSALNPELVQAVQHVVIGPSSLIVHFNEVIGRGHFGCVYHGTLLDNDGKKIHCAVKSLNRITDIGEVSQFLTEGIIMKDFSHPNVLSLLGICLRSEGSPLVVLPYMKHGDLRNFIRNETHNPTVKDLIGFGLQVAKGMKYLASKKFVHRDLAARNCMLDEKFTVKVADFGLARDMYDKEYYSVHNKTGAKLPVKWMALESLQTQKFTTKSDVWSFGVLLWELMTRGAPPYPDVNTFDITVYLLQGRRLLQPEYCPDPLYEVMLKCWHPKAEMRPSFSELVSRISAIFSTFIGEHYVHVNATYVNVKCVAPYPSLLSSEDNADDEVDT
Put plainly: flow cytometry, transfected NIH3T3 cells. Here is the method:
as §1
For the molecule B1, the “Positive Cells” value came out at 55.1%.
Same read-out and setting: in the case of B2 it was 72.9%; in that of B3, 70.2%; in that of B4, 51.6%.
As for B5, the “Positive Cells” value was 66.4%.
Still for that read-out and setting: under B6 stands 54.3%.
Turning to B7, the “Positive Cells” value came out at 87.3%.
Same read-out and setting: in the case of B8 it was 54.8%; in that of B9, 64.9%.

The target of another test is T5, His-tagged human HER3 protein (hHER3, ACRO Biosystems Inc., Cat #: ER3-H5223) (human, UniProt P21860 20-643).
T5 construct: Bought protein; also called hHER3-His; not shown: His tag
Put plainly: SPR, Ab captured on Protein A, antigen 400 nM. Here is the method:
(§2) Purified antibodies were captured on the Protein A chip (Series S Sensor Chip Protein A) for the detection. 2 μg/mL antibodies were loaded at 10 μL/min to bind to hHER3, fasHER3, hMET or fasMET (400 and 0 nM). The flow rate was 30 μL/min, the binding and dissociation time were set to 180 s and 400 s, respectively. The chip was regenerated after the last injection of each titration with a glycine solution ([…]) at 30 μL/min for 30 seconds.
(In general: In SPR one partner is held on a chip, and binding of the other changes the refractive index at the surface.)
B1 showed a Kd of 32.7 nM, a koff of 0.000777 s⁻¹ and a kon of 23700 M⁻¹ s⁻¹.
The molecule B2 registered a Kd of 47.4 nM, a koff of 0.0106 s⁻¹ and an on-rate (kon) of 224000 M⁻¹ s⁻¹.
For B3, in that order: 15 nM, 0.00341 s⁻¹ and 227000 M⁻¹ s⁻¹.
On to B4, for which the equilibrium dissociation constant (Kd) turned out to be 38.9 nM and the koff came to 0.0101 s⁻¹.
For the molecule B5, the Kd stood at 16.1 nM, the koff came out at 0.00253 s⁻¹ and the kon turned out to be 157000 M⁻¹ s⁻¹.
For B6, in that order: 13.8 nM, 0.00252 s⁻¹ and 183000 M⁻¹ s⁻¹.
As for B7, binding was put at a Kd of 14.8 nM, the koff came out at 0.00342 s⁻¹ and the kon is 231000 M⁻¹ s⁻¹.
The like results for B8 were, in that order, 13.2 nM, 0.0035 s⁻¹ and 266000 M⁻¹ s⁻¹.
The like results for B9 were, in that order, 16.7 nM, 0.00262 s⁻¹ and 157000 M⁻¹ s⁻¹.

Another test deals with T6, His-tagged monkey HER3 protein (fasHER3, Sino Biological, Inc., Cat #: 90043-K08H) (monkey).
T6 construct: Bought protein
Put plainly: SPR, Ab captured on Protein A, antigen 400 nM. How it is done:
as §2
Molecule B1 gave a Kd of 92.5 nM, a koff of 0.000844 s⁻¹ and a kon of 9120 M⁻¹ s⁻¹.
The like results for B2 were, in that order, 90.2 nM, 0.0103 s⁻¹ and 114000 M⁻¹ s⁻¹.
Regarding B3, the affinity, expressed as Kd, was 33.1 nM; the koff is 0.00322 s⁻¹; the kon worked out at 97300 M⁻¹ s⁻¹.
B4 came in with a Kd of 67.2 nM.
As for B5, the Kd was 38.9 nM, the koff is 0.00255 s⁻¹ and the kon was determined as 65600 M⁻¹ s⁻¹.
In turn, B6 had a Kd of 31.5 nM, a koff of 0.0025 s⁻¹ and a kon of 79300 M⁻¹ s⁻¹.
For B7, in that order: 33.7 nM, 0.00325 s⁻¹ and 96400 M⁻¹ s⁻¹.
B8 came in with a Kd of 29 nM, a koff of 0.00329 s⁻¹ and a kon of 113000 M⁻¹ s⁻¹.
For B9, in that order: 38.9 nM, 0.00261 s⁻¹ and 67100 M⁻¹ s⁻¹.

A further test concerns the target T7, His-tagged human MET (hMET, Sino Biological, Inc., Cat #: 10692-H08H) (human, UniProt P08581 25-932).
T7 construct: Bought protein; not shown: His tag
Put plainly: SPR, Ab captured on Protein A, antigen 400 nM. Here is the method:
as §2
As to B1, the Kd worked out at 18 nM, the koff was 0.00122 s⁻¹ and the kon amounted to 68000 M⁻¹ s⁻¹.
The molecule B2 had a Kd of 50.7 nM, a koff of 0.00256 s⁻¹ and an on-rate constant (kon) of 50500 M⁻¹ s⁻¹.
For B3, in that order: 21.8 nM, 0.00051 s⁻¹ and 23400 M⁻¹ s⁻¹.
On to B4, for which the affinity, expressed as Kd, was 14.8 nM and the koff was determined as 0.00113 s⁻¹.
As to B5, binding was put at a Kd of 40.4 nM, the off-rate constant (koff) was 0.00255 s⁻¹ and the kon amounted to 63200 M⁻¹ s⁻¹.
For B6, in that order: 14 nM, 0.000998 s⁻¹ and 71400 M⁻¹ s⁻¹.
The like results for B7 were, in that order, 43.1 nM, 0.00285 s⁻¹ and 66100 M⁻¹ s⁻¹.
The like results for B8 were, in that order, 16.9 nM, 0.0012 s⁻¹ and 71100 M⁻¹ s⁻¹.
B9 displayed a Kd of 35.7 nM, a koff of 0.000973 s⁻¹ and a kon of 27200 M⁻¹ s⁻¹.

Values taken from US20260250418A1 (BIOCYTOGEN PHARMACEUTICALS BEIJING, published 2026).
